Drawing on article PMC9014129, this text covers Kd for two molecules.

This assay addresses CK2β^1–193-DBCO-Sulfo-Cy5 (human) (UniProt P67870). The assay is described as follows: other fluorescence titration; quenching of the fluorescence of 30 nM CK2β^1–193-DBCO-Sulfo-Cy5 by 0.3 nM to 5 µM CK2α variant; Monolith NT.115, mode initial fluorescence; 25°C; 500 mM NaCl, 25 mM TRIS/HCl, pH 8.5, 0.05% Tween 20.

What is called Kd is the concentration at which binding is half-saturated. “human CK2α (from UniProt P68400 1-391) (enzyme)” showed a Kd of 13.6 nM.

B1: human CK2α^Lys198Arg (enzyme)
chain: MSGPVPSRARVYTDVNTHRPREYWDYESHVVEWGNQDDYQLVRKLGRGKYSEVFEAINITNNEKVVVKILKPVKKKKIKREIKILENLRGGPNIITLADIVKDPVSRTPALVFEHVNNTDFKQLYQTLTDYDIRFYMYEILKALDYCHSMGIMHRDVKPHNVMIDHEHRKLRLIDWGLAEFYHPGQEYNVRVASRYFRGPELLVDYQMYDYSLDMWSLGCMLASMIFRKEPFFHGHDNYDQLVRIAKVLGTEDLYDYIDKYNIELDPRFNDILGRHSRKRWERFVHSENQHLVSPEALDFLDKLLRYDHQSRLTAREAMEHPYFYTVVKDQARMGSSSMPGGSTPVSSANMMSGISSVPTPSPLGPLAGSPVIAAANPLGMPVPAAAGAQQ
Regarding B1, the Kd turned out to be 6.2 nM.
